Test results reported in the Immune Epitope Database (IEDB).
Values belong to the sequence of their own block, whether it stands above or below them.

Legend:
HLA-B*83:01 = test: IEDB peptide-MHC binding, purified MHC/competitive/fluorescence; filed as Kd, often an IC50 or EC50 that approximates it; ≥ and ≤ were set here for values at or beyond the usual limits of such assays
HLA-B*15:42 = test: as above
HLA-B*45:06 = test: as above
HLA-B*08:01 = test: as above
HLA-A*03:01 [1] = test: IEDB peptide-MHC binding, purified MHC/competitive/fluorescence; ≥ and ≤ were set here for values at or beyond the usual limits of such assays
HLA-A*11:01 [2] = test: as above
HLA-B*39:01 = test: IEDB peptide-MHC binding, purified MHC/competitive/fluorescence; filed as Kd, often an IC50 or EC50 that approximates it; ≥ and ≤ were set here for values at or beyond the usual limits of such assays
HLA-A*01:01 [3] = test: as above
HLA-A*29:02 [4] = test: as above; conditions: source organism: Streptococcus pneumoniae D39
HLA-B*15:01 = test: as above
HLA-B*27:03 = test: as above
HLA-B*15:17 = test: as above
HLA-B*46:01 = test: as above
HLA-A*26:01 = test: as above
HLA-B*57:01 = test: as above
HLA-A*69:01 = test: as above
HLA-B*51:01 [5] = test: as above
HLA-A*02:19 = test: IEDB peptide-MHC binding, purified MHC/direct/fluorescence; filed as Kd, often an IC50 or EC50 that approximates it; ≥ and ≤ were set here for values at or beyond the usual limits of such assays
HLA-A*24:03 = test: as above
HLA-A*02:12 = test: as above
HLA-A*02:16 = test: as above
HLA-A*03:01 [6] = test: as above
HLA-A*02:03 = test: as above
HLA-A*29:02 [7] = test: as above
HLA-A*02:11 = test: as above
HLA-B*53:01 = test: IEDB peptide-MHC binding, purified MHC/competitive/radioactivity; filed as Kd, often an IC50 or EC50 that approximates it; ≥ and ≤ were set here for values at or beyond the usual limits of such assays
HLA-B*54:01 = test: as above
HLA-B*07:02 [8] = test: as above
HLA-B*51:01 [9] = test: as above
HLA-B*35:01 [10] = test: as above
HLA-A*02:01 [11] = test: IEDB peptide-MHC binding, purified MHC/competitive/fluorescence; ≥ and ≤ were set here for values at or beyond the usual limits of such assays
HLA-B*35:01 [12] = test: IEDB peptide-MHC binding, purified MHC/competitive/fluorescence; filed as Kd, often an IC50 or EC50 that approximates it; ≥ and ≤ were set here for values at or beyond the usual limits of such assays; conditions: source organism: Yersinia pestis Antiqua
HLA-A*02:01 [13] = test: as above
HLA-B*18:01 = test: as above; conditions: source organism: Kurkino virus
HLA-B*07:02 [14] = test: IEDB peptide-MHC binding, purified MHC/direct/fluorescence; filed as Kd, often an IC50 or EC50 that approximates it; ≥ and ≤ were set here for values at or beyond the usual limits of such assays
HLA-A*68:02 = test: as above; conditions: source organism: Orthohantavirus sangassouense
HLA-A*01:01 [15] = test: as above; conditions: source organism: Mus musculus
HLA-A*02:01 [16] = test: as above; conditions: source organism: SARS-CoV1
HLA-A*11:01 [17] = test: as above; conditions: source organism: SARS-CoV1
HLA-A*24:02 = test: IEDB peptide-MHC binding, purified MHC/competitive/fluorescence; ≥ and ≤ were set here for values at or beyond the usual limits of such assays
[18] = source organism: Human herpesvirus 4 strain B95-8
[19] = source organism: Vaccinia virus WR
[20] = source organism: Escherichia coli 536
[21] = source organism: Orthohantavirus andesense
[22] = source organism: Sudan ebolavirus
[23] = source organism: Yersinia pestis Antiqua
[24] = source organism: Triticum aestivum
[25] = source organism: Orthohantavirus sangassouense
[26] = source organism: Mammarenavirus machupoense
[27] = source organism: SARS coronavirus Tor2
[28] = source organism: Zaire ebolavirus
[29] = source organism: Vaccinia virus Copenhagen

Sequence: DEVEFLGHY
Kd (HLA-B*83:01; [18]): ≥ 5 µM
Kd (HLA-B*15:42; [18]): ≥ 5 µM
Kd (HLA-B*45:06; [18]): ≥ 5 µM

Kd (HLA-B*08:01; source organism: Escherichia coli): 0.377 µM
Sequence: ENALRGVAV

Sequence: ETLGYCMIR
IC50 (HLA-A*03:01 [1]; [19]): ≥ 248 µM
IC50 (HLA-A*11:01 [2]; [19]): 25.2 µM

Kd (HLA-B*39:01; [20]): ≥ 20 µM
Kd (HLA-B*08:01; [20]): ≥ 20 µM
Sequence: FGGVPREVL

Sequence: FLQMENLMY
Kd (HLA-A*01:01 [3]; source organism: Bacillus anthracis str. A0488): 0.0021 µM

Sequence: GVNFNLYYY
Kd (HLA-A*29:02 [4]): ≤ 0.0001 µM
Kd (HLA-A*01:01 [3]; source organism: Streptococcus pneumoniae D39): 0.021 µM

Sequence: IQNALEKAL
Kd (HLA-B*15:01; [21]): 0.197 µM
Kd (HLA-B*27:03; [21]): ≥ 20 µM
Kd (HLA-B*15:17; [21]): ≥ 20 µM
Kd (HLA-B*46:01; [21]): ≥ 20 µM
Kd (HLA-A*26:01; [21]): ≥ 20 µM
Kd (HLA-B*57:01; [21]): ≥ 20 µM
Kd (HLA-A*69:01; [21]): ≥ 20 µM
Kd (HLA-B*51:01 [5]; [21]): ≥ 20 µM
Kd (HLA-A*02:19; [21]): ≥ 20 µM
Kd (HLA-A*24:03; [21]): ≥ 20 µM
Kd (HLA-A*02:12; [21]): ≥ 20 µM
Kd (HLA-A*02:16; [21]): ≥ 20 µM
Kd (HLA-A*03:01 [6]; [21]): ≥ 20 µM
Kd (HLA-A*02:03; [21]): ≥ 20 µM
Kd (HLA-A*29:02 [7]; [21]): ≥ 20 µM
Kd (HLA-A*02:11; [21]): ≥ 20 µM

Sequence: LPRVVGGKTV
Kd (HLA-B*53:01; [19]): 12.4 µM
Kd (HLA-B*54:01; [19]): 0.0391 µM
Kd (HLA-B*07:02 [8]; [19]): 0.000306 µM
Kd (HLA-B*51:01 [9]; [19]): 0.0326 µM
Kd (HLA-B*35:01 [10]; [19]): ≥ 28.8 µM

Sequence: LRRWGGTCR
IC50 (HLA-A*02:01 [11]; [22]): ≥ 645 µM
IC50 (HLA-A*03:01 [1]; [22]): ≥ 200 µM

Sequence: MPARLWLCL
Kd (HLA-B*39:01; [23]): 0.108 µM
Kd (HLA-B*08:01; [23]): 0.383 µM
Kd (HLA-B*51:01 [5]; [23]): ≥ 20 µM
Kd (HLA-B*35:01 [12]): 0.0008 µM

Sequence: QAFYTRVLK
IC50 (HLA-A*03:01 [1]; [19]): 1.47 µM
IC50 (HLA-A*11:01 [2]; [19]): 0.311 µM

Kd (HLA-B*53:01; [24]): ≥ 63.7 µM
Kd (HLA-B*54:01; [24]): ≥ 63.7 µM
Kd (HLA-B*07:02 [8]; [24]): ≥ 64 µM
Kd (HLA-B*51:01 [9]; [24]): 11.4 µM
Kd (HLA-B*35:01 [10]; [24]): ≥ 63.7 µM
Sequence: QPQYSQPQQPI

Sequence: RLKTTENSF
Kd (HLA-B*08:01; source organism: Influenza A virus (A/Northern Territory/60/1968(H3N2))): ≥ 20 µM

Sequence: RPTPKKMNIV
Kd (HLA-B*53:01; [19]): ≥ 69.9 µM
Kd (HLA-B*54:01; [19]): 5.86 µM
Kd (HLA-B*07:02 [8]; [19]): 0.0524 µM
Kd (HLA-B*51:01 [9]; [19]): ≥ 69.6 µM
Kd (HLA-B*35:01 [10]; [19]): ≥ 48.8 µM

Sequence: SPGDNSAKF
Kd (HLA-A*02:01 [13]; source organism: Kurkino virus): ≥ 20 µM
Kd (HLA-B*15:01; source organism: Kurkino virus): ≥ 20 µM
Kd (HLA-B*27:03; source organism: Kurkino virus): ≥ 20 µM
Kd (HLA-B*15:17; source organism: Kurkino virus): ≥ 20 µM
Kd (HLA-B*39:01; source organism: Kurkino virus): ≥ 20 µM
Kd (HLA-B*46:01; source organism: Kurkino virus): ≥ 20 µM
Kd (HLA-A*26:01; source organism: Kurkino virus): ≥ 20 µM
Kd (HLA-B*57:01; source organism: Kurkino virus): ≥ 20 µM
Kd (HLA-A*69:01; source organism: Kurkino virus): ≥ 20 µM
Kd (HLA-B*18:01): ≥ 20 µM
Kd (HLA-B*51:01 [5]; source organism: Kurkino virus): ≥ 20 µM
Kd (HLA-A*02:19; [25]): ≥ 20 µM
Kd (HLA-A*24:03; [25]): ≥ 20 µM
Kd (HLA-A*02:12; [25]): ≥ 20 µM
Kd (HLA-A*02:16; [25]): ≥ 20 µM
Kd (HLA-A*03:01 [6]; [25]): ≥ 20 µM
Kd (HLA-B*07:02 [14]; source organism: Tanganya virus): 1.96 µM
Kd (HLA-A*02:03; [25]): ≥ 20 µM
Kd (HLA-A*29:02 [7]; [25]): ≥ 20 µM
Kd (HLA-A*02:11; [25]): ≥ 20 µM
Kd (HLA-A*68:02): ≥ 20 µM

Kd (HLA-A*02:01 [13]; source organism: Homo sapiens): ≥ 20 µM
Kd (HLA-B*27:03; source organism: Homo sapiens): ≥ 20 µM
Kd (HLA-B*39:01; source organism: Homo sapiens): ≥ 20 µM
Kd (HLA-B*46:01; source organism: Homo sapiens): ≥ 20 µM
Kd (HLA-B*57:01; source organism: Homo sapiens): ≥ 20 µM
Kd (HLA-A*69:01; source organism: Homo sapiens): ≥ 20 µM
Kd (HLA-B*83:01; source organism: Homo sapiens): ≥ 5 µM
Kd (HLA-B*51:01 [5]; source organism: Homo sapiens): ≥ 20 µM
Kd (HLA-B*15:42; source organism: Homo sapiens): ≥ 5 µM
Kd (HLA-B*45:06; source organism: Homo sapiens): ≥ 5 µM
Kd (HLA-A*01:01 [15]): 0.0007 µM
Sequence: SVDSDHLGY

Sequence: TPNQPSAEF
Kd (HLA-B*53:01; [26]): 0.565 µM
Kd (HLA-B*54:01; [26]): 18.7 µM
Kd (HLA-B*07:02 [8]; [26]): 0.076 µM
Kd (HLA-B*51:01 [9]; [26]): 13 µM
Kd (HLA-B*35:01 [10]; [26]): 0.0403 µM

Sequence: TPRDLGACI
Kd (HLA-B*53:01; [27]): ≥ 42 µM
Kd (HLA-B*54:01; [27]): 3.88 µM
Kd (HLA-B*51:01 [9]; [27]): 3.89 µM
Kd (HLA-B*35:01 [10]; [27]): 12.9 µM
Kd (HLA-A*02:01 [16]): ≥ 36 µM
Kd (HLA-B*07:02 [14]; source organism: SARS-CoV1): 0.188 µM
Kd (HLA-A*11:01 [17]): 9.73 µM

Sequence: TSPQSLTTK
IC50 (HLA-A*03:01 [1]; [28]): 22.3 µM
IC50 (HLA-A*11:01 [2]; [28]): 1.76 µM

IC50 (HLA-A*03:01 [1]; source organism: Mus musculus): 12.6 µM
Sequence: VLFGLGFAI

Sequence: VSSGKNIKR
IC50 (HLA-A*02:01 [11]; [28]): ≥ 140 µM
IC50 (HLA-A*03:01 [1]; [28]): ≥ 82.2 µM
IC50 (HLA-A*24:02; [28]): ≥ 163 µM
IC50 (HLA-A*11:01 [2]; [28]): 4.31 µM

Sequence: VYGNIKHKE
IC50 (HLA-A*03:01 [1]; [29]): ≥ 158 µM
IC50 (HLA-A*24:02; [29]): 34.9 µM
IC50 (HLA-A*11:01 [2]; [29]): 69.1 µM
